Assay results published in US20100310640A1.
Blank lines part the entries; values can stand above or below the binder they belong to.

Assays:
Settings in all cases: remark: other sources report otherwise
HLA-DR DRB1*0101 (human) [1] = target: T1, HLA-DR DRB1*0101 (human); assay: radioligand inhibition, purified HLA-DR
T1 chain 1: not shown
T1 chain 2: not shown

HLA-DR DRB1*1302 (human) [2] = target: T2, HLA-DR DRB1*1302 (human); assay: radioligand inhibition, purified HLA-DR
T2 chain 1: not shown
T2 chain 2: not shown

HLA-DR DRB1*0101 (human) [3] = target: T1, HLA-DR DRB1*0101 (human); assay: radiolabeled-peptide inhibition, purified HLA-DR
HLA-DR DRB1*0401 (human) [4] = target: T3, HLA-DR DRB1*0401 (human); assay: radiolabeled-peptide inhibition, purified HLA-DR
T3 chain 1: not shown
T3 chain 2: not shown

HLA-DR DRB1*0405 (human) [5] = target: T4, HLA-DR DRB1*0405 (human); assay: radiolabeled-peptide inhibition, purified HLA-DR
T4 chain 1: not shown
T4 chain 2: not shown

HLA-DR DRB1*1302 (human) [6] = target: T2, HLA-DR DRB1*1302 (human); assay: radiolabeled-peptide inhibition, purified HLA-DR
HLA-DR DRB1*0401 (human) [7] = target: T3, HLA-DR DRB1*0401 (human); assay: radioligand inhibition, purified HLA-DR
HLA-DR DRB1*0405 (human) [8] = target: T4, HLA-DR DRB1*0405 (human); assay: radioligand inhibition, purified HLA-DR
HLA-DR DRB1*0404 (human) = target: T5, HLA-DR DRB1*0404 (human); assay: radioligand inhibition, purified HLA-DR
T5 chain 1: not shown
T5 chain 2: not shown

HLA-DR DRB1*0701 (human) [9] = target: T6, HLA-DR DRB1*0701 (human); assay: radioligand inhibition, purified HLA-DR
T6 chain 1: not shown
T6 chain 2: not shown

HLA-DR DRB5*0101 (human) [10] = target: T7, HLA-DR DRB5*0101 (human); assay: radioligand inhibition, purified HLA-DR
T7 chain 1: not shown
T7 chain 2: not shown

HLA-DR DRB5*0101 (human) [11] = target: T7, HLA-DR DRB5*0101 (human); assay: radiolabeled-peptide inhibition, purified HLA-DR
HLA-DR DRB4*0101 (human) = target: T8, HLA-DR DRB4*0101 (human); assay: radioligand inhibition, purified HLA-DR
T8 chain 1: not shown
T8 chain 2: not shown

HLA-DR DRB1*0701 (human) [12] = target: T6, HLA-DR DRB1*0701 (human); assay: radiolabeled-peptide inhibition, purified HLA-DR
HLA-DR DRB1*1101 (human) = target: T9, HLA-DR DRB1*1101 (human); assay: radioligand inhibition, purified HLA-DR
T9 chain 1: not shown
T9 chain 2: not shown

- IC50 (HLA-DR DRB1*0101 (human) [1]): 1460 nM
- IC50 (HLA-DR DRB1*1302 (human) [2]): 286 nM
B1: Cyclin D1.19 peptide 9019.0146 (peptide)
peptide: DANLLNDRVLRAMLK

- IC50 (HLA-DR DRB1*0101 (human) [3]): 158 nM
- IC50 (HLA-DR DRB1*0401 (human) [4]): 401 nM
- IC50 (HLA-DR DRB1*0405 (human) [5]): 11200 nM
- IC50 (HLA-DR DRB1*1302 (human) [6]): 116 nM
B2: 9019.0085 (peptide)
peptide: HRDLAARNVLVKSPN

- IC50 (HLA-DR DRB1*0401 (human) [7]): 717 nM
- IC50 (HLA-DR DRB1*0405 (human) [8]): 955 nM
B3: Peptide 1622.04 (peptide)
peptide: ICTIDVYMIMVKCWM

- IC50 (HLA-DR DRB1*0101 (human) [1]): 7.7 nM
- IC50 (HLA-DR DRB1*0404 (human)): 29 nM
- IC50 (HLA-DR DRB1*0405 (human) [8]): 110 nM
- IC50 (HLA-DR DRB1*0701 (human) [9]): 18 nM
- IC50 (HLA-DR DRB5*0101 (human) [10]): 4000 nM
B4: Peptide 9019.0190 (peptide)
peptide: ERGPLEHLYSLHIPN

- IC50 (HLA-DR DRB1*0101 (human) [3]): 17 nM
- IC50 (HLA-DR DRB5*0101 (human) [11]): 94 nM
B5: 9019.0046 (peptide)
peptide: LREVRAVTSANIQEF

- IC50 (HLA-DR DRB1*0101 (human) [1]): 17300 nM
- IC50 (HLA-DR DRB1*0701 (human) [9]): 7460 nM
- IC50 (HLA-DR DRB1*1302 (human) [2]): 10200 nM
B6: Peptide 9019.0101 (peptide)
peptide: EGPLPAARPAGATLE

- IC50 (HLA-DR DRB1*0101 (human) [1]): 3650 nM
- IC50 (HLA-DR DRB1*1302 (human) [2]): 5070 nM
B7: Her2/neu.158 (peptide)
peptide: NPQLCYQDTILWKDI

- IC50 (HLA-DR DRB1*0101 (human) [1]): 384 nM
- IC50 (HLA-DR DRB1*0701 (human) [9]): 4450 nM
- IC50 (HLA-DR DRB1*1302 (human) [2]): 5640 nM
- IC50 (HLA-DR DRB4*0101 (human)): 12100 nM
- IC50 (HLA-DR DRB5*0101 (human) [10]): 384 nM
B8: CEA.688 peptide 9019.05 (peptide)
peptide: TVGIMIGVLVGVALI

- IC50 (HLA-DR DRB1*0701 (human) [12]): 352 nM
B9: 9019.0078 (peptide)
peptide: MAGVGSPYVSRLLGI

- IC50 (HLA-DR DRB1*0101 (human) [1]): 9440 nM
- IC50 (HLA-DR DRB1*0401 (human) [7]): 13000 nM
- IC50 (HLA-DR DRB1*0701 (human) [9]): 5260 nM
- IC50 (HLA-DR DRB1*1302 (human) [2]): 154 nM
B10: CEA.92 peptide 9019.0111 (peptide)
peptide: GPAYSGREIIYPNAS

- IC50 (HLA-DR DRB1*0401 (human) [7]): 754 nM
- IC50 (HLA-DR DRB1*1302 (human) [2]): 3220 nM
- IC50 (HLA-DR DRB4*0101 (human)): 441 nM
- IC50 (HLA-DR DRB5*0101 (human) [10]): 2810 nM
B11: Her2/neu.263 (peptide)
peptide: ICELHCPALVTYNTD

- IC50 (HLA-DR DRB1*0101 (human) [1]): 2610 nM
- IC50 (HLA-DR DRB1*0401 (human) [7]): 18 nM
B12: Cyclin D1.251 (peptide)
peptide: IEALLESSLRQAQQN

- IC50 (HLA-DR DRB1*0101 (human) [1]): 149 nM
- IC50 (HLA-DR DRB1*0405 (human) [8]): 3860 nM
- IC50 (HLA-DR DRB1*0701 (human) [9]): 4460 nM
- IC50 (HLA-DR DRB1*1101 (human)): 6810 nM
- IC50 (HLA-DR DRB1*1302 (human) [2]): 3990 nM
- IC50 (HLA-DR DRB4*0101 (human)): 572 nM
B13: Peptide 9019.0098 (peptide)
peptide: AKGLQSLPTHDPSPL

- IC50 (HLA-DR DRB1*0101 (human) [1]): 3510 nM
- IC50 (HLA-DR DRB1*0401 (human) [7]): 4190 nM
- IC50 (HLA-DR DRB1*0701 (human) [9]): 92 nM
- IC50 (HLA-DR DRB1*1302 (human) [2]): 80 nM
- IC50 (HLA-DR DRB4*0101 (human)): 2590 nM
B14: CEA.680 peptide 9019.0144 (peptide)
peptide: SPGLSAGATVGIMIG

- IC50 (HLA-DR DRB1*0101 (human) [1]): 44 nM
B15: Cyclin D1.209 (peptide)
peptide: VAAVQGLNLRSPNNF

- IC50 (HLA-DR DRB1*0401 (human) [7]): 255 nM
- IC50 (HLA-DR DRB1*0701 (human) [9]): 5240 nM
- IC50 (HLA-DR DRB1*1101 (human)): 9210 nM
- IC50 (HLA-DR DRB1*1302 (human) [2]): 83 nM
- IC50 (HLA-DR DRB4*0101 (human)): 612 nM
B16: CEA.123 peptide 9019.0119 (position 226) (peptide)
peptide: SDSVILNVLYGPDAP

- IC50 (HLA-DR DRB1*0401 (human) [7]): 1960 nM
B17: Cyclin D1.24 peptide 9019.0147 (peptide)
peptide: NDRVLRAMLKAEETC

- IC50 (HLA-DR DRB1*0101 (human) [1]): 2040 nM
- IC50 (HLA-DR DRB1*0401 (human) [7]): 5390 nM
- IC50 (HLA-DR DRB1*0701 (human) [9]): 8000 nM
- IC50 (HLA-DR DRB1*1302 (human) [2]): 704 nM
B18: Her/neu.3 (peptide)
peptide: LAALCRWGLLLALLP

- IC50 (HLA-DR DRB1*0101 (human) [1]): 6160 nM
B19: Peptide 9019.0100 (peptide)
peptide: PEYVNQPDVRPQPPS

- IC50 (HLA-DR DRB1*0101 (human) [1]): 472 nM
- IC50 (HLA-DR DRB1*0401 (human) [7]): 43 nM
- IC50 (HLA-DR DRB1*0405 (human) [8]): 311 nM
- IC50 (HLA-DR DRB1*1101 (human)): 151 nM
- IC50 (HLA-DR DRB4*0101 (human)): 2290 nM
B20: CEA.624 peptide 9019.0138 (peptide)
peptide: QYSWRINGIPQQHTQ

- IC50 (HLA-DR DRB1*0101 (human) [1]): 992 nM
- IC50 (HLA-DR DRB1*0404 (human)): 675 nM
- IC50 (HLA-DR DRB1*0405 (human) [8]): 13200 nM
- IC50 (HLA-DR DRB1*1302 (human) [2]): 6060 nM
- IC50 (HLA-DR DRB5*0101 (human) [10]): 3000 nM
B21: Her2/neu.126 (peptide)
peptide: TTPVTGASPGGLREL
